From the DeepSol protein solubility set

Assay: soluble on expression in E. coli; label from the status in PepcDB or PDB records

Which “soluble on expression in E. coli” value does the source give for “MDRLRFDHRVITENGNKQPLVMVINLSSISMAMMSYDFNSKPLLIFWETTKACGLKCEHCRASAILDALPGEMTFDQSINFLSHIKEFGKPYPIVILTGGDMLRKHRIWDIMDYLRSQEIPFSVSPAVTDLLTHEAILKFKEFGVSSVSISLDGMREVHEKVRGVAGVYDDTVKAIEDLISTGISMQINTVVMRSTVHDLPHVLKLIIDKGVKVWEVFFLIKTGRGIDREDLSPEEYENVNKFLLFATGYGIRIRTVESPIYRRITMQYGKNGLIKGGRLFDELREETVSLIGNPSKEYASSVIPTRDGFGIIFVGHDGEVYPSGFLPYSVGNVKDRSIVDIYRNSDLLNSIRNPDNLHGKCGLCEYRKVCGGSRARAFAYTGDPFGTDPSCIYEPSAVPE” here?
Its value is “not soluble”.

Which “soluble on expression in E. coli” value does the source give for “MPPIPEPEIDPVLKELLYAYSVISRARRYAGMAGVPLPLSLTEINEYLATHPVLIERDEFEAVIFALDDQYFQEQCV” here?
The value was “not soluble”.

For “MGSDKIHHHHHHMAAINAAVLQALRTMVRSEFQNALTKTESLYLKIASVVPSNTKSNTYGWLGSMPTMREWIGARVINSIKEHGYSITNRTFETTIGICRDDVEDEVIGTYKPMVQALAQEGEEFPDDLVFELLADGFSTLCYDGQNFFDTDHPVNEKHDGTGDNVSVANMALDAAYTGEPWFLLDTTRPLKPVIFQERRKLDLNTLFNPTDPAVWTNNEFQFGTDMRCEAGFGFWQMAFANKRALNADNLWDTIEKMKAFKRDGGKKLKIRPSLLVVPSSLEQAATKLLTRELIDENGTTVENELKGKVELLVVPQL”, which “soluble on expression in E. coli” value is on record?
The value was “not soluble”.

Which “soluble on expression in E. coli” value does the source give for “MSLNQLTDHVTLRHGATLNNRIVMSPMQTHSGLKGGFASDDTIQYYSARSRAAGMLITEFHYVSENGGPAYVPGYPEQLGAYSDAHLEGLRKTVQALKKDGNKAILQIHHAGRAAVGRHVNGLDVVAPSAIDFSFLDYPVRELTITEIDDIILDFGKATKRAIDAGFDGVEIHGANHYLIQQFFSKLSNLRTDKWGGSLNKRMAFPLAVVKEVKAIVDEYAPKGFIIGYRISPEELHGKNVGYDYTEALTLISEVIKYELDYIHLSLWAGYNSKPENSEKSYAELFKEILDDKTKLLIVGGIFGEDTATDAIENYADLIAVARGTLIDPNFAKKVTEGKGDTILHKISPETVEYSHLTPGLLEAFSREDSLGLPPLPGGETIRHLHTGKYDEGHHHHHH” here?
The value was “soluble”.

With “MGSDKIHHHHHHMSLIFDIKRYAINDGPGIRITLFMKGCPLSCIWCHNPEGIRNGKDKLYTAKKCLGCGTCLKVCPNGALTLTPEGIITDKQKCVLCGRCAEECPAMAIEISGTEYTAEYLMHEIEKEIPFMDQSGGGVTFCGGEPLLHPEFLIDILKRCGQQGIHRAVDTTLLARKETVDEVMRNCELLLIDLKSMDSTVHQTFCDVPNELILKNIRRVAEADFPYYIRIPLIEGVNADEKNIKLSAEFLASLPRHPEIINLLPYHDIGKGKHAKLGSIYNPKGYKMQTPSEEVQQQCIQILTDYGLKATIGG” as the sequence, how does the “soluble on expression in E. coli” value read?
The value was “not soluble”.

Which “soluble on expression in E. coli” value does the source give for “MDVVKEIMAAIKQYETIIIHRHQRPDPDAIGSQVGLAELLRASFPEKNIYQVGGPVEGLEFLAEMDVITDDVYRGALVIVTDTANAPRISDARFSLGDQLIKIDHHPNDEPYGDLVWVNTNASSCSEIIVDFWQQHLAELTMTDNAARLLYAGIVGDTGRFLYPSTSAHTLAVAAQLRTFNFNAADLNRELDQMPLKVAKLAGYIYQNLEIDANGAARVVLPQSILNSYDIVDSETAAIVSMPGKIEDVLSWAIFVEQPEGYYRVRLRSKGPIINTIAKKHHGGGHPLASGANARDAAEIEVIYQEIQAACQEWAQK” here?
The value was “not soluble”.

With “MSLKTMKFILACVLLLSPLLCQAQKNLFNKYNDMKGVSSVYISKAMMELNPNLFMKDLYIGKVAEHLNSVQVLSTHDNKVREEMAKDIRSLVQSSKYELLMKQKSTVSGSEVYVNRKGSKVKELIMVMNGASSLKFVYMEGDMTTDDIKKLMLYQSTSQNEGHHHHHH” as the sequence, how does the “soluble on expression in E. coli” value read?
The value was “not soluble”.

For “GSPEFEFKQKYDYFRKKLKKPADIPNRFEMKLHRNNIFEESYRRIMSVKRPDVLKARLWIEFESEKGLDYGGVAREWFFLLSKEMFNPYYGLFEYSATDNYTLQINPNSGLCNEDHLSYFTFIGRVAGLAVFHGKLLDGFFIRPFYKMMLGKQITLNDMESVDSEYYNSLKWILENDPTELDLMFCIDEENFGQTYQVDLKPNGSEIMVTNENKREYIDLVIQWRFVNRVQKQMNAFLEGFTELLPIDLIKIFDENELELLMCGLGDVDVNDWRQHSIYKNGYCPNHPVIQWFWKAVLLMDAEKRIRLLQFVTGTSRVPMNGFAELYGSNGPQLFTIEQWGSPEKLPRAHTAFNRLDLPPYETFEDLREKLLMAVENAQGFEGVD”, which “soluble on expression in E. coli” value is on record?
The value was “soluble”.

With “MGSDKIHHHHHHMELPCSLLCFVETLAVLRRSKSLSNEIIATGSRLVAGPSGAQDRAMTATRYDKNAKNVLGQELVPCSLDPVTGFYRNGCCETGPHDLGLHTVCAVMTRDFLAFSKAQGNDLSTPRPDLAFPGLKPGDRWCLCAGRWKEALDAGMAPQVVLEATHEEMLAVVPLGVLKDHAAA” as the sequence, how does the “soluble on expression in E. coli” value read?
The value was “not soluble”.

Which “soluble on expression in E. coli” value does the source give for “MMSMIEKLKKFTQIPGISGYEERIREEIIREIKDFADYKVDAIGNLIVELGEGEERILFMAHMDEIGLLITGITDEGKLRFRKVGGIDDRLLYGRHVNVVTEKGILDGVIGATPPHLSLERDKSVIPWYDLVIDIGAESKEEALELVKPLDFAVFKKHFSVLNGKYVSTRGLDDRFGVVALIEAIKDLVDHELEGKVIFAFTVQEEVGLKGAKFLANHYYPQYAFAIDSFACCSPLTGDVKLGKGPVIRAVDNSAIYSRDLARKVWSIAEKNGIEIQIGVTGGGTDASAFQDRSKTLALSVPIKYLHSEVETLHLNDLEKLVKLIEALAFEL” here?
Its value is “soluble”.

For “MGSDKIHHHHHHMFSEGENVAKATIPLALESAEKNLETSNENEKARRSSSDTAISVRGISKCYQIYDAPRDRLKQFIIPRLRLARQQSRQYFREFWALKGISFEVRKGETVGIIGRNGSGKSTLLQIICGTLTPTAGSVETRGRIAALLELGSGFNPEFTGRENIYMNGAVLGLTREEIDDRFDSIVSFADIGQFIDQPVKTYSSGMSVRLAFAVQAQVDPDILIVDEALSVGDVRFQAKCFARLQQLKDNGTSVLLVTHSSEQIVTHCSSALLLNDGMQFEIGEPRHVVNRYLDLLFGKERRNPDSPQAQPGDIFQEDKGYAESAYQLSTDSDVFQTRNGYNTHEYRWGDGTASILDFYLAANGEPYPSAITVGQTVTLAVSIKFHSDMWRPILGITIKTKDGVTISGTNSEMADLLDLQALVKKGAILVGKCSFQCRLGPGDYFVSLGLATRENDEIIPHDRRYDSIHFIVEPHNKFHGLADLALDLSISHIVESNQI”, which “soluble on expression in E. coli” value is on record?
Its value is “not soluble”.

Which “soluble on expression in E. coli” value does the source give for “MGSDKIHHHHHHMIIPHRKPCIESQIKTSGNLDELKMIINDLLYSEKEIQILPSGNSAIHIASEIVSKLNPNSKTLIPDMGGWKGFETYSKLSGLSIEKLKTNLGVVNLEILEEKIKECSAKSLFLTSLAGYLAEQPLKEIAKICSENDCLFIEDVSGKIGGDCGYGDMVVCSTGSPKIINCEYGGFLGFSKKINENLKDKHLKEDIKNLLKTYKMPDIYGKMIEETLISKKSYELCIKFSNIVKENMENAYFKDSQGVSVFLSYENPKEIAKNIDKSVKLNNGKSILTMCPLYERILRKGVVLEIKKMDIHKISENEIYEILNFF” here?
Its value is “not soluble”.

With “MSRQCTHYGRWPQHGFTSLKKLRPQSVTSRIQPGSDVIVCAEMDEHWGYVGAKSRQRWLFYAYDRIRRTVVAHVFGERTLATLERLLSLLSAFEVVVWMTDGWPLYESRLKGKLHVISKRYTQRIERHNLNLRQHLARLVRKSLSFSKSVELHDKVIGHYLNIKHYQLEHHHHHH” as the sequence, how does the “soluble on expression in E. coli” value read?
The value was “not soluble”.

With “MGSDKIHHHHHHMSNTKKGLATAGYNDDLAKLEEIFLPNFFYKKMQYYFSSSGLISNDVLFVHYTSTESALDIIREKRVLMRNALHMPDRQEVQDGFNIMDGLLSNENNHWVEFRNRIEVVLPGVVDRVMKIYSDHSHGRNDGTYFLSVLEHDESEKELGRLSMWRAFCGQSQPVAMFLRLPALSAVSQVLRIFFNPVLYKGKGQQHLELAEVIKNVENHKSFLERLDPDLVTSAIVSMILINVLCVKHKVFKEEREWRCVYLPKCFTSETSARLIEPGVEEQVGASRNVYKMPLNAAIDPVLSDIDLSKIFDSLIIGPSKSPYATYEVFCDELKKIGVSDVESKVRVTEIPVR” as the sequence, how does the “soluble on expression in E. coli” value read?
The value was “not soluble”.
